Starred links: 1 amine or outer side, 2 acyl side, 3 side chain; linkers in the order of their positions; H or OH if unused. Non-standard residues stand in square brackets, D forms with d. Groups on a side chain read outwards from the residue. Primed or numbered codes have the meaning given here. No end group written: not given here. *: point of attachment. γGlu = O=C(O)[C@H](CCC(=O)[*:2])N[*:1]; Stearoyl = CCCCCCCCCCCCCCCCCC(=O)*; Palmitoyl = CCCCCCCCCCCCCCCC(=O)*; αMeF = C[C@](N)(Cc1ccccc1)C(=O)O; αMeK = C[C@](N)(CCCCN)C(=O)O; αMeS = C[C@](N)(CO)C(=O)O; PEG2′ = not defined here; Aib = CC(C)(N)C(=O)O; Ahx = NCCCCCC(=O)O
T1: glucose-dependent insulinotropic peptide (gastric inhibitory polypeptide) receptor (GIPR) (human, UniProt P48546 22-466)
T1 sequence (looked up): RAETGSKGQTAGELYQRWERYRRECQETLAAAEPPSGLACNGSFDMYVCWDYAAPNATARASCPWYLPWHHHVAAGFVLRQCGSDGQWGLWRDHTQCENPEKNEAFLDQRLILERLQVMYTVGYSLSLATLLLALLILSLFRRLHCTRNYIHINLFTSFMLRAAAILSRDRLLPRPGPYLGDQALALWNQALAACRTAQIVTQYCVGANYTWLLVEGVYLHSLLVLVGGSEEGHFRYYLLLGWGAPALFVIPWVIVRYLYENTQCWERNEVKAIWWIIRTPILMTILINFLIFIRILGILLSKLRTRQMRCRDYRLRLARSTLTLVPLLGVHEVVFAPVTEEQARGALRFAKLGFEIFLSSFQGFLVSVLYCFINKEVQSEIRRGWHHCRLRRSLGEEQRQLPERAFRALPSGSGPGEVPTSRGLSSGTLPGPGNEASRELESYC

T2: glucose-dependent insulinotropic peptide (gastric inhibitory polypeptide) receptor (GIPR), primary cAMP assay (human, UniProt P48546 22-466)
T2 sequence (looked up): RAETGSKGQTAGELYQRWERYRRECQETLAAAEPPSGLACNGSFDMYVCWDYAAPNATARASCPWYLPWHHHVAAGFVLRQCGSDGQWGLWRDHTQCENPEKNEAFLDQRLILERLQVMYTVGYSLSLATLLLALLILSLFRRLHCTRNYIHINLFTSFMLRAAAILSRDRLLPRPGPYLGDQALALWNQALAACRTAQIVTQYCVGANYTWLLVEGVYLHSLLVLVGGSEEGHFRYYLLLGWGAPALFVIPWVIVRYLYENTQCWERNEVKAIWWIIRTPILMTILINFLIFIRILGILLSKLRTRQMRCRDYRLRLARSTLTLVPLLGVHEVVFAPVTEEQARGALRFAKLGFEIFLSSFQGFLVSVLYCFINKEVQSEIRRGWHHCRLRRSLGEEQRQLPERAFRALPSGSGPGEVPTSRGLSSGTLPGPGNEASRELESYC


What was measured:
Test in all cases: cell-based or functional assay
GLP-1 receptor (GLP-1R) = GLP-1 receptor (GLP-1R) (human, UniProt P43220 24-463)
glucagon receptor (GCGR) = glucagon receptor (GCGR) (human, UniProt P47871 26-477)
[1] = biological target: T1, glucose-dependent insulinotropic …
[2] = biological target: GLP-1 receptor (GLP-1R), primary cAMP assay (human, UniProt P43220 24-463)
[3] = biological target: glucagon receptor (GCGR), primary cAMP assay (human, UniProt P47871 26-477)
[4] = biological target: T2, glucose-dependent insulinotropic …

Chain of glucagon receptor (GCGR), primary cAMP assay (P47871 26-477): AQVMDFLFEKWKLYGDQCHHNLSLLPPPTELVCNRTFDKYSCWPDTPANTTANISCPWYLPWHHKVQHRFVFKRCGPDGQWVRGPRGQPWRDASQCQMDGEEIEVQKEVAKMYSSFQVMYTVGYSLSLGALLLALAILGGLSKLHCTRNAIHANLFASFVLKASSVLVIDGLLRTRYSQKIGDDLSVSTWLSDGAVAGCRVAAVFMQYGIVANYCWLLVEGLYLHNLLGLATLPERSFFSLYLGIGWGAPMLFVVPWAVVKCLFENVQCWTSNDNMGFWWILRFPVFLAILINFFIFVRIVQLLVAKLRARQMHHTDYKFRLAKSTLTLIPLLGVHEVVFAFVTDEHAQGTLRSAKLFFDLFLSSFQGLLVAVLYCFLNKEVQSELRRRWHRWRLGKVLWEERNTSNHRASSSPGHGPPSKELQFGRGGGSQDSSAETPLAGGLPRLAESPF
Chain of glucagon receptor (GCGR) (P47871 26-477): as above

Binder | Primary assay EC50 (cAMP), GLP-1R n1 (GLP-1 receptor (GLP-1R)) [nM] | Primary assay EC50 (cAMP), GLP-1R n2 (GLP-1 receptor (GLP-1R)) [nM] | Primary assay EC50 (cAMP), Mean pM GLP-1R (GLP-1 receptor (GLP-1R)) [pM] | Primary assay EC50 (cAMP), Gluc-R, first run (glucagon receptor (GCGR)) [nM] | Primary assay EC50 (cAMP), Gluc-R, second run (glucagon receptor (GCGR)) [nM] | Primary assay EC50 (cAMP), GIP-R, first run [1] [nM] | Primary assay EC50 (cAMP), GIP-R, second run [1] [nM] | Primary assay EC50 (cAMP) Mean [2] [nM] | Primary assay EC50 (cAMP), n1 [2] [nM] | Primary assay EC50 (cAMP), n2 [2] [nM] | Primary assay EC50 (cAMP), n1 [3] [nM] | Primary assay EC50 (cAMP), n2 [3] [nM] | Primary assay EC50 (cAMP), n1 [4] [nM] | Primary assay EC50 (cAMP), n2 [4] [nM]
H[Aib]EGS[αMeF]TSDV[αMeS]S[αMeF]LEGEAA[αMeK]E[αMeF]IA[αMeF]VVK([PEG2′-PEG2′-PEG2′-Stearoyl])GG-NH2 [SEQ ID NO 199] | 0.029 | 0.0075 | 18.3 | 25 | 25 | 25 | 25 | – | – | – | – | – | – | –
H[Aib]EGTFTSDVSK([PEG2′-PEG2′-γGlu-Palmitoyl])YLEGEAAEEFIK([PEG2′-PEG2′-γGlu-Palmitoyl])WVVEGG-NH2 [SEQ ID NO: 242] | – | – | – | – | – | – | – | 3.85 | 3.58 | 4.11 | 21.4 | 21.4 | 21.4 | 21.4
H[Aib]EGS[αMeF]TSDV[αMeS]S[αMeF]LEGEAA[αMeK]E[αMeF]IA[αMeF]VVK([Ahx-Ahx-Stearoyl])GG-NH2 (N-terminus assumed; SMILES CCCCCCCCCCCCCCCCCC(=O)NCCCCCC(=O)NCCCCCC(=O)NCCCC[C@H](NC(=O)[C@@H](NC(=O)[C@@H](NC(=O)[C@](C)(Cc1ccccc1)NC(=O)[C@H](C)NC(=O)[C@@H](NC(=O)[C@](C)(Cc1ccccc1)NC(=O)[C@H](CCC(=O)O)NC(=O)[C@](C)(CCCCN)NC(=O)[C@H](C)NC(=O)[C@H](C)NC(=O)[C@H](CCC(=O)O)NC(=O)CNC(=O)[C@H](CCC(=O)O)NC(=O)[C@H](CC(C)C)NC(=O)[C@](C)(Cc1ccccc1)NC(=O)[C@H](CO)NC(=O)[C@](C)(CO)NC(=O)[C@@H](NC(=O)[C@H](CC(=O)O)NC(=O)[C@H](CO)NC(=O)[C@@H](NC(=O)[C@](C)(Cc1ccccc1)NC(=O)[C@H](CO)NC(=O)CNC(=O)[C@H](CCC(=O)O)NC(=O)C(C)(C)NC(=O)[C@@H](N)Cc1c[nH]cn1)[C@@H](C)O)C(C)C)[C@@H](C)CC)C(C)C)C(C)C)C(=O)NCC(=O)NCC(N)=O) [SEQ ID NO 195] | 0.17 | 0.046 | 107 | 27 | 27 | 27 | 27 | – | – | – | – | – | – | –
H[Aib]EGTFTSDVSK([PEG2′-PEG2′-γGlu-Palmitoyl])YLEGEAAEEFIK([PEG2′-PEG2′-γGlu-Palmitoyl])FVVEGG-NH2 [SEQ ID NO: 244] | – | – | – | – | – | – | – | 12.3 | 7.77 | 16.9 | 21.6 | 21.6 | 21.6 | 21.6
H[Aib]EGS[αMeF]TSDV[αMeS]S[αMeF]LEGEAA[αMeK]E[αMeF]IA[αMeF]VVK([PEG2′-Stearoyl])GG-NH2 [SEQ ID NO 197] | 0.12 | 0.034 | 79 | 27 | 27 | 27 | 27 | – | – | – | – | – | – | –
H[Aib]EGTFTSDVSK([PEG2′-PEG2′-γGlu-Palmitoyl])FLEGEAAEEFIK([PEG2′-PEG2′-γGlu-Palmitoyl])FVVEGG-NH2 [SEQ ID NO: 245] | – | – | – | – | – | – | – | 11.2 | 12.3 | 10.2 | 21.6 | 21.6 | 21.6 | 21.6
H[Aib]EGS[αMeF]TSDV[αMeS]S[αMeF]LEGEAA[αMeK]E[αMeF]IA[αMeF]VVK([Ahx-Ahx-Ahx-Stearoyl])GG-NH2 (N-terminus assumed; SMILES CCCCCCCCCCCCCCCCCC(=O)NCCCCCC(=O)NCCCCCC(=O)NCCCCCC(=O)NCCCC[C@H](NC(=O)[C@@H](NC(=O)[C@@H](NC(=O)[C@](C)(Cc1ccccc1)NC(=O)[C@H](C)NC(=O)[C@@H](NC(=O)[C@](C)(Cc1ccccc1)NC(=O)[C@H](CCC(=O)O)NC(=O)[C@](C)(CCCCN)NC(=O)[C@H](C)NC(=O)[C@H](C)NC(=O)[C@H](CCC(=O)O)NC(=O)CNC(=O)[C@H](CCC(=O)O)NC(=O)[C@H](CC(C)C)NC(=O)[C@](C)(Cc1ccccc1)NC(=O)[C@H](CO)NC(=O)[C@](C)(CO)NC(=O)[C@@H](NC(=O)[C@H](CC(=O)O)NC(=O)[C@H](CO)NC(=O)[C@@H](NC(=O)[C@](C)(Cc1ccccc1)NC(=O)[C@H](CO)NC(=O)CNC(=O)[C@H](CCC(=O)O)NC(=O)C(C)(C)NC(=O)[C@@H](N)Cc1c[nH]cn1)[C@@H](C)O)C(C)C)[C@@H](C)CC)C(C)C)C(C)C)C(=O)NCC(=O)NCC(N)=O) [SEQ ID NO 196] | 0.19 | 0.063 | 125 | 26 | 26 | 26 | 26 | – | – | – | – | – | – | –
H[Aib]EGS[αMeF]TSDV[αMeS]S[αMeF]LEGEAA[αMeK]E[αMeF]IA[αMeF]VVK([Ahx-Stearoyl])GG-NH2 (N-terminus assumed; SMILES CCCCCCCCCCCCCCCCCC(=O)NCCCCCC(=O)NCCCC[C@H](NC(=O)[C@@H](NC(=O)[C@@H](NC(=O)[C@](C)(Cc1ccccc1)NC(=O)[C@H](C)NC(=O)[C@@H](NC(=O)[C@](C)(Cc1ccccc1)NC(=O)[C@H](CCC(=O)O)NC(=O)[C@](C)(CCCCN)NC(=O)[C@H](C)NC(=O)[C@H](C)NC(=O)[C@H](CCC(=O)O)NC(=O)CNC(=O)[C@H](CCC(=O)O)NC(=O)[C@H](CC(C)C)NC(=O)[C@](C)(Cc1ccccc1)NC(=O)[C@H](CO)NC(=O)[C@](C)(CO)NC(=O)[C@@H](NC(=O)[C@H](CC(=O)O)NC(=O)[C@H](CO)NC(=O)[C@@H](NC(=O)[C@](C)(Cc1ccccc1)NC(=O)[C@H](CO)NC(=O)CNC(=O)[C@H](CCC(=O)O)NC(=O)C(C)(C)NC(=O)[C@@H](N)Cc1c[nH]cn1)[C@@H](C)O)C(C)C)[C@@H](C)CC)C(C)C)C(C)C)C(=O)NCC(=O)NCC(N)=O) [SEQ ID NO 194] | 0.24 | 0.068 | 154 | 28 | 28 | 28 | 28 | – | – | – | – | – | – | –
H[Aib]EGS[αMeF]TSDV[αMeS]S[αMeF]LEGEAA[αMeK]E[αMeF]IA[αMeF]VVK([PEG2′-PEG2′-Stearoyl])GG-NH2 [SEQ ID NO 198] | 0.041 | 0.015 | 27.9 | 26 | 26 | 26 | 26 | – | – | – | – | – | – | –
H[Aib]EGTFTSDVSK([PEG2′-PEG2′-γGlu-Palmitoyl])FLEGEAAEEFIK([PEG2′-PEG2′-γGlu-Palmitoyl])WVVEGG-NH2 [SEQ ID NO: 243] | – | – | – | – | – | – | – | 3.21 | 2.93 | 3.48 | 21.5 | 21.5 | 21.5 | 21.5
